Data as given in article PMC3742519.

Molecular target: subtilisin A (Bacillus licheniformis) (Bacillus licheniformis) (UniProt P00780)
Experiment: enzyme inhibition kinetics (Lineweaver–Burk); substrate (AAPF) added to an equilibrium mixture of subtilisin A and rEs-DWD1; competitive inhibition, inhibitor at 0, 2.5 and 5 μM; 0.1 M Tris-HCl pH 8.0, 37 °C; p-nitroaniline read at 405 nm

Sequence of UniProt P00780 (P00780 106-379): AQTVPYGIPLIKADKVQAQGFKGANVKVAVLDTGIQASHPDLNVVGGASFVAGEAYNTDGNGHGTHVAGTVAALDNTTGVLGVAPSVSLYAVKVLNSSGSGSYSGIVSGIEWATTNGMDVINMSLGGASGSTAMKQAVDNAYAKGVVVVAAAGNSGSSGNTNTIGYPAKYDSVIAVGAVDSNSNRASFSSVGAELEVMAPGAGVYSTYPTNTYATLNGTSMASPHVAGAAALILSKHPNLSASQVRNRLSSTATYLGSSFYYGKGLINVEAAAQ

Ki: 4.12 nM
Substance: recombinant Es-DWD1 (double WAP domain-containing protein from Eriocheir sinensis) (natural protein)
